Residue numbers refer to the chain shown, from its start.
Key:
PEDF S24,114E variant = tested on: T1, PEDF S24,114E variant
T1 sequence: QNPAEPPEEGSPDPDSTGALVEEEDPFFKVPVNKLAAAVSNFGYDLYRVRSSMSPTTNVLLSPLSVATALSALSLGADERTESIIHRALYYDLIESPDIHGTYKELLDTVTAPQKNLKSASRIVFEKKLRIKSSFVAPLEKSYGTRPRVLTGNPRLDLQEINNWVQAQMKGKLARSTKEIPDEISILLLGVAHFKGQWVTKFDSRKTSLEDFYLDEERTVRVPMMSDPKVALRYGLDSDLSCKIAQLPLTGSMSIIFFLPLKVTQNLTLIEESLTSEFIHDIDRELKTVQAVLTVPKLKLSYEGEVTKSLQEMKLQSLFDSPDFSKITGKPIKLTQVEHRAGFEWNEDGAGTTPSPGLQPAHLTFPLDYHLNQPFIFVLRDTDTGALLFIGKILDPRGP

[1] = tested on: T2, Recombinant human pigment epithelium derived factor (rPEDF)
T2 sequence: T1 sequence with E5S, E95S

[2] = tested on: T3, PEDF AAE variant (S24,114A, 227E)
T3 sequence: T1 sequence with E5A, E95A, S208E

[3] = tested on: T4, PEDF EEE variant (S24,114, 227E)
T4 sequence: T1 sequence with S208E

[4] = tested on: T5, PEDF AAA variant (S24,114, 227A)
T5 sequence: T1 sequence with E5A, E95A, S208A

[5] = tested on: T6, PEDF EEA variant (S24,114E, 227A)
T6 sequence: T1 sequence with S208A

## Catalytic subunit of protein kinase A (PKA)
PEDF S24,114E variant
  in vitro phosphorylation by PKA after brief heat treatment of the variant: a brief heat treatment ... restored its phosphorylation by PKA
[1]
  in vitro phosphorylation by PKA ([γ32P]-ATP, SDS-PAGE, autoradiography): rPEDF served as a good substrate to PKA
[2]
  in vitro phosphorylation by PKA: none of the triple mutants was phosphorylated by PKA
[3]
  in vitro phosphorylation by PKA: none of the triple mutants was phosphorylated by PKA
[4]
  in vitro phosphorylation by PKA: none of the triple mutants was phosphorylated by PKA
[5]
  in vitro phosphorylation by PKA: none of the triple mutants was phosphorylated by PKA
